Each block holds one binder with its values, some of them ahead of it.
Columns and labels:
endogenous Nup62 [1] = target: T1, endogenous Nup62 (human, UniProt P37198 2-522); test: co-IP, western blot
T1 construct: Detected with anti-Nup62
T1 sequence (looked up): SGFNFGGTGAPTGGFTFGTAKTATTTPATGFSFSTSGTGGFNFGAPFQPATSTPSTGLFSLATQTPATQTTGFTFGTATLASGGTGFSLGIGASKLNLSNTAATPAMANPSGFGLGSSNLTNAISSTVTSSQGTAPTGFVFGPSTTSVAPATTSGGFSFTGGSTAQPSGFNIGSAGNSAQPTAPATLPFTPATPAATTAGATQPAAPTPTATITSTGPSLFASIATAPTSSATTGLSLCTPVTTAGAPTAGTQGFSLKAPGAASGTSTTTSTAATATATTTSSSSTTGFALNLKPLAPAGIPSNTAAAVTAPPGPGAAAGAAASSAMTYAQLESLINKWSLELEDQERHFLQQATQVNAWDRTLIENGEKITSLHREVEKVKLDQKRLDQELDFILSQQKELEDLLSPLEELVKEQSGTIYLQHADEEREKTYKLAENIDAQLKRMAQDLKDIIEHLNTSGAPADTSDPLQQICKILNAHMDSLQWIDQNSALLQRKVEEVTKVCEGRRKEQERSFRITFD
Excerpt: RanGTP and importin-α interact with H1-8 and H8-19, respectively. FG-Nups bind to two regions of KPNB1, H5-7 and H14-16. FIG. 21B) Lysates from HEK293T cells expressing GFP, GFP-KPNB1 full-length (FL), N-terminal fragments of KPNB1 (H1-9 . . . H1) or the C-terminal fragment of KPNB1 (H10-19) were subjected to immunoprecipitation with GFP-Trap magnetic beads. Whole cell lysates (input) and immunoprecipitates (IP) were subjected to western blot analysis using indicated antibodies. KPNB1 H1-8, the smallest fully active KPNB1 fragment in reducing TDP-43 aggregation, strongly interacts with FG-Nups and Ran, and weakly with importin-al in comparison with full-length KPNB1. FIG. 21C) (Top) Schematic domain structure of KPNB1 H1-8^mNIS harboring four missense mutations (1178A, F217A, Y255A, I263R) in the nucleoporin-interacting site (NIS). (Bottom) Lysates from HEK293T cells expressing GFP, GFP-KPNB1 H1-8^WT or H1-8^mNIS were subjected to immunoprecipitation with GFP-Trap magnetic beads. Whole cell lysates (input) and immunoprecipitates (IP) were subjected to western blot analysis using indicated antibodies. […] Hoechst staining was used to outline nuclei. Scale bar: 5 μm. […] FIG. 21G) Quantification of the percentage of cells with cytoplasmic GR aggregates positive for endogenous TDP-43.

Nup62-mCherry = target: T2, Nup62-mCherry (UniProt P37198 1-522); test: co-localisation by fluorescence microscopy of co-transfected cells
T2 construct: mCherry replaced GFP in pNup62-EGFP3; also called mCherry-tagged Nup62; not shown: mCherry tag
T2 sequence: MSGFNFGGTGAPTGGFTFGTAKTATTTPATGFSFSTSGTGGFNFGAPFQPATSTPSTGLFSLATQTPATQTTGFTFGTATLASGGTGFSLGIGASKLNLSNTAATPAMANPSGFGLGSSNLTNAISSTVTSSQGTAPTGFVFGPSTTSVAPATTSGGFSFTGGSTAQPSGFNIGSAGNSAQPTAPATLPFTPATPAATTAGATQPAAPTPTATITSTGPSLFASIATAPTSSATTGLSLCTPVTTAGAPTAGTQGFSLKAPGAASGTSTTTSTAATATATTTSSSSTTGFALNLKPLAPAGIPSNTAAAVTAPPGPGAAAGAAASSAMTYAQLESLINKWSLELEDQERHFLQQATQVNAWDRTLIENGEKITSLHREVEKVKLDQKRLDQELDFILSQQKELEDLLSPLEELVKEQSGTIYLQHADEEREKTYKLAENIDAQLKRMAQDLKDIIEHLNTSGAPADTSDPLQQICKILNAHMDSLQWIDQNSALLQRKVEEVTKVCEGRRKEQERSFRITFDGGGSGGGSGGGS

endogenous Nup98 = target: T3, endogenous Nup98 (human, UniProt P52948 1-880); test: GFP-Trap IP from HEK293T lysates, western blot
T3 sequence (looked up): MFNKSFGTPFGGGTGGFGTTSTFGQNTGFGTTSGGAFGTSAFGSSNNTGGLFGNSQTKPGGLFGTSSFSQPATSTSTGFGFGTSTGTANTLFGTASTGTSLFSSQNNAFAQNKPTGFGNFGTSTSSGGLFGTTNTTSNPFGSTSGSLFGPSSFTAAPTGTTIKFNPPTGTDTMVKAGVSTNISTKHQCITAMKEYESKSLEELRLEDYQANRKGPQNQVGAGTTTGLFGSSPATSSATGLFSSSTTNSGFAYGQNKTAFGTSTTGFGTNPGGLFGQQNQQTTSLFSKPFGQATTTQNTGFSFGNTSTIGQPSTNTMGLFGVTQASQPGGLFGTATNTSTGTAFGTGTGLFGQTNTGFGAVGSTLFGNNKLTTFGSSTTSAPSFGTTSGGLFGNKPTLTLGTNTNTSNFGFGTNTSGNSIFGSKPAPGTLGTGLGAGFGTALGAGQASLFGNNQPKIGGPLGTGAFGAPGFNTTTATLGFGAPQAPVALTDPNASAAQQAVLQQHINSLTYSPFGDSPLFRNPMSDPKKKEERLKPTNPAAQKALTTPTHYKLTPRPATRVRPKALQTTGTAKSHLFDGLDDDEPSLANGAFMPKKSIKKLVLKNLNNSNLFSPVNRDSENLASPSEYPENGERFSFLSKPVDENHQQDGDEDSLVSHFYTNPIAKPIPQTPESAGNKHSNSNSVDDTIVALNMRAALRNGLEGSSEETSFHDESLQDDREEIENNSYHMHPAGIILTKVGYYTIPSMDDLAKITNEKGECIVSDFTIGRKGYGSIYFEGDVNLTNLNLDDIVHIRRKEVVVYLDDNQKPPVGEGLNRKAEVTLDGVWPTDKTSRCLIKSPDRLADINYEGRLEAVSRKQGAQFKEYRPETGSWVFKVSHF
Excerpt: (§1) FIGS. 29A-29C: Untagged KPNB1 interacts with both the RRM2 and PrLD of TDP-CTF. FIG. 29A) (Left) Lysates from HEK293T cells expressing GFP alone, or untagged KPNB1 with GFP, GFP-TDP-CTF or GFP-TDP43^WT were subjected to immunoprecipitation with GFP-Trap magnetic beads. Whole cell lysates (input) and immunoprecipitates (IP) were subjected to western blot analysis using indicated antibodies. (Right) Quantification of relative KPNB1 levels in IP normalized by KPNB1 levels in input. Statistical analysis was performed using one-way ANOVA and Bonferroni's post hoc test (**p<0.01, ***p<0.001, n=3). […] FIG. 29C) (Left) Lysates from HEK293T cells expressing GFP alone, or untagged KPNB1 with GFP, GFP-TDP-CTF, GFP-TDP-CTF^non-PrLD or GFP-TDP-PrLD were subjected to immunoprecipitation with GFP-Trap magnetic beads. Whole cell lysates (input) and immunoprecipitates (IP) were subjected to western blot analysis using indicated antibodies. (Right) Quantification of relative KPNB1 levels in IP normalized by KPNB1 levels in input. Statistical analysis was performed using one-way ANOVA and Bonferroni's post hoc test (***p<0.001, n=3).
(§2) FIGS. 31A-31C: The PrLD of TDP-43 interacts with FG-Nups and KPNB1. FIG. 31A) Immunofluorescence (IF) of HEK293T cells expressing GFP or GFP-TDP-PrLD and stained for endogenous Nup98 and Nup62. TDP-PrLD forms small cytoplasmic foci positive for Nup62. FIG. 31B) IF of HEK293T cells expressing GFP or GFP-TDP-PrLD and stained for endogenous KPNB1. KPNB1 colocalizes with TDP-PrLD foci in the cytoplasm. Hoechst staining was used to outline nuclei. Scale bar: 5 μm. FIG. 31C) Lysates from HEK293T cells expressing GFP or GFP-TDP-PrLD were subjected to immunoprecipitation with GFP-Trap magnetic beads. Whole cell lysates (input) and immunoprecipitates (IP) were subjected to western blot analysis using indicated antibodies. The PrLD of TDP-43 interacts with Nup62, Nup98 and KPNB1, but not with Ran.
(§3) HEK293T cells were seeded in 6-well plates and transfected for 48 hours. Cells were then lysed in IP Lysis buffer (Fisher) supplemented with a protease inhibitor cocktail (Roche), and were centrifuged at 15000 rpm for 20 minutes at 4° C. A small aliquot of the recovered supernatant was set aside (input).

endogenous Ran = endogenous Ran (human, UniProt P62826 2-216); test: GFP-Trap IP from HEK293T lysates, western blot
Excerpt: as §1, §2, §3

Untagged KPNB1 = target: T4, Untagged KPNB1 (Homo sapiens (Human), UniProt Q14974 1-876); test: GFP-Trap IP from HEK293T lysates, western blot
T4 construct: KPNB1 amplified by PCR and cloned into pEGFP-C1 lacking the GFP tag; also called Wildtype KPNB1
Excerpt: as §1, §2, §3

endogenous Nup62 [2] = target: T1, endogenous Nup62; test: co-localisation by immunofluorescence in HEK293T cells (not a direct binding assay)
Excerpt: as §2

endogenous KPNB1 = target: T5, endogenous KPNB1 (human, UniProt Q14974 1-876); test: as above
T5 construct: Endogenous protein detected with anti-KPNB1
Excerpt: as §2

GFP-Nup98 = target: T6, GFP-Nup98 (UniProt P52948 1-880); test: co-localisation by immunofluorescence in HEK293T cells (FIG. 35)
T6 construct: Bought plasmid; not shown: GFP tag
T6 sequence (looked up): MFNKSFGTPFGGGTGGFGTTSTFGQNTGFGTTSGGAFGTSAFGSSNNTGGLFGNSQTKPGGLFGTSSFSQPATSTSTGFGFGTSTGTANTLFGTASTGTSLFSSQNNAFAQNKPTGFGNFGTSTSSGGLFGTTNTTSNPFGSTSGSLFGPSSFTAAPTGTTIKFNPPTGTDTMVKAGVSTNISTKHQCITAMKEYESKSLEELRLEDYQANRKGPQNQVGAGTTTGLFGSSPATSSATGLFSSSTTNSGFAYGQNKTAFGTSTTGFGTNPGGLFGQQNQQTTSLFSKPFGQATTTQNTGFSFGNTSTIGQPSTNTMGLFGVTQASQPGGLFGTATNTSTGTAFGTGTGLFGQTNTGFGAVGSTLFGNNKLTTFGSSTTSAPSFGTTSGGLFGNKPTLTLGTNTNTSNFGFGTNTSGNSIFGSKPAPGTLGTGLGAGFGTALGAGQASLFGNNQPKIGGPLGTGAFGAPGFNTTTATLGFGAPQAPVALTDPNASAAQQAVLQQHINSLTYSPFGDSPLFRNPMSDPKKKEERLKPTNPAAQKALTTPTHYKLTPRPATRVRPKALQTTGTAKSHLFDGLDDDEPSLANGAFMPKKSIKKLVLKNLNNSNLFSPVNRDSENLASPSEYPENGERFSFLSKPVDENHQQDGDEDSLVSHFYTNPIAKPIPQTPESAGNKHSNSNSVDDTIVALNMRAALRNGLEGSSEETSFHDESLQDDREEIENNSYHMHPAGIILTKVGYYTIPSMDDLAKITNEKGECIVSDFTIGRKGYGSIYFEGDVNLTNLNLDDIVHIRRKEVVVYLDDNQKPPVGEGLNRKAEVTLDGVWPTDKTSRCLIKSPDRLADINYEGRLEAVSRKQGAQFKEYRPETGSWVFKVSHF
Excerpt: FIG. 35: Nup98 strongly associates with TDP-CTF^WT, but not TDP-CTF^VLIM-F and sTDP. […] Arrowheads point to co-aggregation. Hoechst staining was used to outline nuclei. Scale bar: 5 μm.

T5 sequence (Q14974 whole entry): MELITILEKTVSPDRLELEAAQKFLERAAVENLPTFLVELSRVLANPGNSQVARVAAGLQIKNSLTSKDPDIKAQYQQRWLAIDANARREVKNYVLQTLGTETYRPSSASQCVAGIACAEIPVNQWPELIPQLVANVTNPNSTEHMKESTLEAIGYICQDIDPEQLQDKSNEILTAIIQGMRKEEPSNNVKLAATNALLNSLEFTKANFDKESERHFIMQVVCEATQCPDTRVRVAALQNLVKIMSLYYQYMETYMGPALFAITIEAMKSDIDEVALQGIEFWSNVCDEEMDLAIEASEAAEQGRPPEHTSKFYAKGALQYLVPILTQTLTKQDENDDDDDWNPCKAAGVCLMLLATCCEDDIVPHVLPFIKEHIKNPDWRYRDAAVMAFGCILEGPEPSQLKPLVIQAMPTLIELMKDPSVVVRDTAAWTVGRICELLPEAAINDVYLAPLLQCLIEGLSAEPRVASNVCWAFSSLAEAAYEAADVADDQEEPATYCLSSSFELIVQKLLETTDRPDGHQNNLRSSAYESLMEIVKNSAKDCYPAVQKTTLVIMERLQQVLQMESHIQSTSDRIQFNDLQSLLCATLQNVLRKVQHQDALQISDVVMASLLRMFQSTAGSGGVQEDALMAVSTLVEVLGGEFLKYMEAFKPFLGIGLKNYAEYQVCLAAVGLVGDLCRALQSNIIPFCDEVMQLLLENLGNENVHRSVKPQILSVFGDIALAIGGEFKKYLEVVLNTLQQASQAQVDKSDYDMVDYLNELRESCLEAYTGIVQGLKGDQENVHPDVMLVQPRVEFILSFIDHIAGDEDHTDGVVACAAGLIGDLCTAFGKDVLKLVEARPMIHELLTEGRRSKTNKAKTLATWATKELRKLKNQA
T4 sequence (Q14974 whole entry): as above

binding result (endogenous Nup62 [1]): no binding
B1: GFP-KPNB1 H1-8^mNIS (receptor)
chain: GGGSGGGSGGGSMELITILEKTVSPDRLELEAAQKFLERAAVENLPTFLVELSRVLANPGNSQVARVAAGLQIKNSLTSKDPDIKAQYQQRWLAIDANARREVKNYVLQTLGTETYRPSSASQCVAGIACAEIPVNQWPELIPQLVANVTNPNSTEHMKESTLEAIGYICQDIDPEQLQDKSNEILTAIAQGMRKEEPSNNVKLAATNALLNSLEFTKANFDKESERHAIMQVVCEATQCPDTRVRVAALQNLVKIMSLYYQYMETAMGPALFARTIEAMKSDIDEVALQGIEFWSNVCDEEMDLAIEASEAAEQGRPPEHTSKFYAKGALQYLVPILTQTLTKQDENDDDDDWNPCKAAGVCLMLLATCCED
notes: also called KPNB1-mNIS; not shown: GFP/EGFP tag (pEGFP-C1, Clontech)

binding result (Nup62-mCherry): no binding
B2: GFP-TDP-43^mNLS 1-265 (other, human)
chain: GGGSGGGSGGGSMSEYIRVTEDENDEPIEIPSEDDGTVLLSTVTAQFPGACGLRYRNPVSQCMRGVRLVEGILHAPDAGWGNLVYVVNYPKDNAAAMDETDASSAVAVAAAVQKTSDLIVLGLPWKTTEQDLKEYFSTFGEVLMVQVKKDLKTGHSKGFGFVRFTEYETQVKVMSQRHMIDGRWCDCKLPNSKQSQDEPLRSRKVFVGRCTEDMTEDELREFFSQYGDVMDVFIPKPFRAFAFVTFADDQIAQSLCGEDLIIKGISVHISNAEPKHN
notes: not shown: GFP/EGFP tag (pEGFP-C1, Clontech)

binding result (endogenous Nup98): binds | binding result (endogenous Ran): no binding | binding result (Untagged KPNB1): binds | binding result (endogenous Nup62 [2]): binds | binding result (endogenous KPNB1): binds
B3: GFP-TDP-PrLD (other, human)
chain: GGGSGGGSGGGSRFGGNPGGFGNQGGFGNSRGGGAGLGNNQGSNMGGGMNFGAFSINPAMMAAAQAALQSSWGMMGMLASQQNQSGPSGNNQNQGNMQREPNQAFGSGNNSYSGSNSGAAIGWGSASNAGSGSGFNGGFGSSMDSKSSGWGM
notes: also called GFP-TDP-43 PrLD; TDP-PrLD (aa275-414); not shown: GFP/EGFP tag (pEGFP-C1, Clontech)

binding result (GFP-Nup98): no binding
B4: mCherry-TDP-CTF^VLIM-F (other)
chain: GGGSGGGSGGGSREFFSQYGDVMDVFIPKPFRAFAFVTFADDQIAQSLCGEDLIIKGISVHISNAEPKHNSNRQFERSGRFGGNPGGFGNQGGFGNSRGGGAGFGNNQGSNFGGGFNFGAFSFNPAMMAAAQAALQSSWGMMGMLASQQNQSGPSGNNQNQGNFQREPNQAFGSGNNSYSGSNSGAAFGWGSASNAGSGSGFNGGFGSSFDSKSSGWF
notes: also called mCherry-tagged TDP-CTF^VLIM-F; not shown: mCherry tag (mCherry-C1, Clontech)

— patent publication US20240226230A1 (MAYO FOUNDATION FOR MEDICAL EDUCATION AND RESEARCH, published 2024)
